We go through one molecule from patent US10578620B2, “Methods for detecting molecules in a sample” (The Francis Crick Institute Limited, priority 2013, dated 2020).

For the assay, the system named is pT308 (Akt phosphorylation). The assay can be described thus: Two-site TSA-FRET for pT308 in FFPE human breast tumour, CIP specificity control. The protocol: TSA-FRET assay for quantification of pT308 was performed on 4-μm sections of two identical FFPE-fixed breast cancer tissue samples.
Following de-waxing and rehydration, sections were subjected to heat antigen retrieval by microwaving in TRIS-EDTA (pH 9.0) buffer, for 10 minutes at 800 W. Sections were then incubated in freshly prepared sodium borohydrate (1 mg/ml in PBS) buffer for 10 min at RT, followed by blocking with 1% BSA/PBS. Tissues sections were incubated with peroxidase suppressor (Thermo Scientific Pierce) for 15 min.
For the two-site TSAFRET assay, the first slide was incubated with mouse anti-panAkt (1:100), and the second slide with mouse anti-panAkt (1:100) and rabbit anti-pT308 (1:200) primary antibodies, for 16 hours at 4° C. The first slide was further immunolabeled with ORG488-conjugated anti-mouse Fab fragment secondary antibody (20 μg/ml). The second slide was immunolabeled with ORG488-conjugated anti-mouse Fab fragment (20 μg/ml) and HRP-conjugated anti-rabbit Fab fragment secondary antibody (10 μg/ml), which was detected by using Alexa-594-TSA assay. […]
The donor lifetimes of ORG488 were determined from at least 10 ROIs of the tumours, each performed in triplicate unless otherwise indicated. The FRET efficiency was calculated as described above (FIG. 4(a)-(c)).

B1: calf intestinal alkaline phosphatase (protein, UniProt P19111 20-506, looked up)
Intestinal-type alkaline …: LVPVEEEDPAFWNRQAAQALDVAKKLQPIQTAAKNVILFLGDGMGVPTVTATRILKGQMNGKLGPETPLAMDQFPYVALSKTYNVDRQVPDSAGTATAYLCGVKGNYRTIGVSAAARYNQCKTTRGNEVTSVMNRAKKAGKSVGVVTTTRVQHASPAGAYAHTVNRNWYSDADLPADAQMNGCQDIAAQLVNNMDIDVILGGGRKYMFPVGTPDPEYPDDASVNGVRKRKQNLVQAWQAKHQGAQYVWNRTALLQAADDSSVTHLMGLFEPADMKYNVQQDHTKDPTLQEMTEVALRVVSRNPRGFYLFVEGGRIDHGHHDDKAYMALTEAGMFDNAIAKANELTSELDTLILVTADHSHVFSFGGYTLRGTSIFGLAPSKALDSKSYTSILYGNGPGYALGGGSRPDVNDSTSEDPSYQQQAAVPQASETHGGEDVAVFARGPQAHLVHGVEEETFVAHIMAFAGCVEPYTDCNLPAPTTATSIPD
notes: phosphatase used as control to verify FRET signal is due to Akt phosphorylation
Consider B1, for which the “FRET efficiency (Ef) of panAkt+pT308 in CIP-treated tumour samples” value (CIP 10 units/slide 30 min, untreated Ef=6.0) is given as 1.5%. Besides, the “change of FRET efficiency of the panAkt+pT308 signal in the CIP-treated condition” value (FIG. 4(c), p<0.0001) is on record as “reduction”.
